This is an account of results in PMC7112362.

The experiment concerns the target MERS-CoV papain-like cysteine protease (PLpro), His-tagged (MERS-CoV). Description: activity-based probe labelling.

Regarding “K48-linked diUb "in-between" activity-based probe (from UniProt P0CG47 1-75; P0CG47 1-76)”, the percent of the protease labeled after 15 min came out at 50%.

Regarding “K48-linked diUb "proximal" activity-based probe (from UniProt P0CG47 1-75; P0CG47 1-75)”, the percent of the protease labeled after 15 min came out at 50%.
